Test results published in patent US20240084003A1 (SIMCERE ZAIMING PHARMACEUTICAL, published 2024).

T1: human CD22-ECD-His protein (human, UniProt P20273 20-687)
T1 construct: Made in house in HEK293E; also called hCD22-ECD-His; recombinant human CD22-ECD His protein; not shown: His tag
T1 sequence: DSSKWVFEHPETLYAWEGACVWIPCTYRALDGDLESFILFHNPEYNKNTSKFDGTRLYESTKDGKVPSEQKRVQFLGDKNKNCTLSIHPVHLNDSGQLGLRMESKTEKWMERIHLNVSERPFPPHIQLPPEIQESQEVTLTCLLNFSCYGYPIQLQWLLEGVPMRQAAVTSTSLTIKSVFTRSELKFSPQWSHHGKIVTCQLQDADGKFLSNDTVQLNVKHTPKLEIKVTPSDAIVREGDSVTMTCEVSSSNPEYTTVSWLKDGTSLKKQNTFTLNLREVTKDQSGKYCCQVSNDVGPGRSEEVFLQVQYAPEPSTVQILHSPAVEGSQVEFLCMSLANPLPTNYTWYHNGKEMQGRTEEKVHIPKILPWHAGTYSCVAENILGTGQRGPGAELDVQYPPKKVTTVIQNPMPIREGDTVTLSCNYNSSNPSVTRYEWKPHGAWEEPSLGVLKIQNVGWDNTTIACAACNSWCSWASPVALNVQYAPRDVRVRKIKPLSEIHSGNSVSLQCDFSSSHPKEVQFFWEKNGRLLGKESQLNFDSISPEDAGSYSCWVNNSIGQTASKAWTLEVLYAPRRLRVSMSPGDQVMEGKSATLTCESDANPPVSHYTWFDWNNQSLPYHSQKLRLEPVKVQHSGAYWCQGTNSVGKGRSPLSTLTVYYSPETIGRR

T2: monkey CD22 protein (ACROBiosystems, SI2-R52Ha) (monkey (rhesus monkey in paragraph 148), UniProt H9G1X2 18-686)
T2 construct: extracellular domain; also called monkey CD22-ECD; monkey CD22-ECD-His
T2 sequence: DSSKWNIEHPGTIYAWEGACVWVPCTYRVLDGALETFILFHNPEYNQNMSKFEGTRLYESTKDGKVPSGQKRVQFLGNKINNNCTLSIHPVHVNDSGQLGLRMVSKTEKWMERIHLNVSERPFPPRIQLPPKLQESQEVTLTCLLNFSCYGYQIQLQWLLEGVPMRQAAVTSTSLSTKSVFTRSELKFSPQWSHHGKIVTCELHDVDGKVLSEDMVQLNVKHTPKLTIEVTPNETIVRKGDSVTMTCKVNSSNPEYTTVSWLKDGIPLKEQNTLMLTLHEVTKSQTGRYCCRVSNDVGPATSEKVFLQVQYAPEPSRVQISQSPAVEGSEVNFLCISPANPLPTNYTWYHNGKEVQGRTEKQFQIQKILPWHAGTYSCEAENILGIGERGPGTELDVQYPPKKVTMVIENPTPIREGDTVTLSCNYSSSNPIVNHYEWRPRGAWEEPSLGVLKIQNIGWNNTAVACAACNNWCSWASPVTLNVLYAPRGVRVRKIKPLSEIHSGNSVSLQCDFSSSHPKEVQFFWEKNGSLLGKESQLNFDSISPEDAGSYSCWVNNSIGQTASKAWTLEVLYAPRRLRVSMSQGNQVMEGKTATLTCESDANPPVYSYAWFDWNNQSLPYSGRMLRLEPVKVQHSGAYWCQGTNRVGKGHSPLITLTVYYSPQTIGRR

T3: human CD22 domain1-4-His (human, UniProt P20273 20-425)
T3 construct: also called hCD22 domain1-4-His; not shown: His tag
T3 sequence: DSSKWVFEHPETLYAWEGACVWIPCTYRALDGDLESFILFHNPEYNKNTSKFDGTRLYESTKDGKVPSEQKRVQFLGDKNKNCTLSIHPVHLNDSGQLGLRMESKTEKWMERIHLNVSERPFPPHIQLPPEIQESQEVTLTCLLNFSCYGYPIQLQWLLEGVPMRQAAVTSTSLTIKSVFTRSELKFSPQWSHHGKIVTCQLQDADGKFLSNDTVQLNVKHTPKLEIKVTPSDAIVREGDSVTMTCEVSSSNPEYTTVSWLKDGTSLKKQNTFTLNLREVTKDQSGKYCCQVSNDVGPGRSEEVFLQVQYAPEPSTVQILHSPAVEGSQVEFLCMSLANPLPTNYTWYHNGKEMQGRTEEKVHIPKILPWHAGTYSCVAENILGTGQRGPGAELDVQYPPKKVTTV


Experiments:
[1] = target: T1, human CD22-ECD-His protein; experiment: ELISA, human CD22-ECD-His coated
Procedure, shortened: (§1)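 After overnight 4 °C coating with 2 μg/mL CD22-ECD-His and 2 h BSA blocking, wells received antibody, then HRP conjugate (each 2 h, 37 °C). Signal came from TMB, 30 min at room temperature, acid-stopped.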

[2] = target: T1, human CD22-ECD-His protein; experiment: ELISA, Ab 0.10 nM
Procedure, shortened: as §1

[3] = target: T2, monkey CD22 protein (ACROBiosystems, …); experiment: ELISA, monkey CD22-ECD-His coated
Protocol: In order to detect the binding activity of CD22 human-murine chimeric antibodies to CD22 protein, the purified human CD22-ECD-His protein obtained in Example 2 was diluted with PBS to a final concentration of 2 μg/mL, and then added to 96-well ELISA plate at 100 μl/well. The plate was sealed with plastic film and incubated overnight at 4° C., the plate was washed 2 times with PBS the next day, and then a blocking solution [PBS+2% (w/w) BSA] was added for blocking at room temperature for 2 hours. […] After incubation at 37° C. for 2 hours, the plate was washed 3 times with PBS. HRP (horseradish peroxidase)-labeled secondary antibody (purchased from Sigma, catalog number: A0170) was added, and incubated at 37° C. for 2 hours, and the plate was washed 5 times with PBS. TMB substrate was added at 50 μl/well, and incubated at room temperature for 30 minutes, then a stop solution (1.0 N HCl) was added at 50 μl/well.
In order to detect the species cross-binding activity of the chimeric antibodies, an ELISA plate was coated with commercial murine CD22 protein (ACROBiosystems, catalog number: SI2-M52Ha) and monkey CD22 protein (ACROBiosystems, catalog number: SI2-R52Ha), respectively, and the ELISA detection was performed according to the method in Example 5.1.

[4] = target: T1, human CD22-ECD-His protein; experiment: ELISA, Ab 0.001 nM
Procedure, shortened: as §1

[5] = target: T1, human CD22-ECD-His protein; experiment: ELISA, Ab 100.00 nM
Procedure, shortened: as §1

[6] = target: T3, human CD22 domain1-4-His; experiment: ELISA, human CD22 domain1-4-His coated

| Binder | EC50 (read off the curve) [1] [nM] | OD450 [2] [OD450] | EC50 (read off the curve) [3] [nM] | OD450 [4] [OD450] | OD450 [5] [OD450] | binding result [6] | binding result [3] | EC50 (read off the curve) [6] [nM] |
| --- | --- | --- | --- | --- | --- | --- | --- | --- |
| F1.105.11 (antibody, human IgG1, kappa, V domains shown, Human-murine chimeric IgG1, kappa) VH: EVQLQQSGPVLVKPGASVKMSCKASGYTFSDYFMNWVKQSHGKSLEWIGIINSYSGGTSYNQKFKGKATLTVDKSSSTAYMELNSLTSEDSAVYYCARWMDYWGQGTSVTVSS VL: DVQITQSPSYLAASPGETITINCRTSESISKHLAWYQEKPGKTNKLLIYSGSTLQSGIPSRFSGSGSGTDFTLTISSLEPEDFAMYYCQQHNEYPWTFGGGTKLEIKR | ~0.04 | 2.52 | ~0.1 | 0.53 | 2.79 | no binding (tested: 100 nM) | – | – |
| F2.180.16 (antibody, human IgG1, lambda, V domains shown, Human-murine chimeric IgG1, lambda) VH: EVKLVESGGGLVLPGGSLKISCAASGFTFSDYYMYWIRQTPDKRLEWVAYISNTGYSTFYPDSVKGRFTVSRDNAKNTLYLQMSRLQSEDTAMYYCARHGILYAMDYWGQGTSVTVSS VL: QPVLTQSSSASFSLGASAKLTCTLSSQYSTYTIGWYQQQPLKPPKYVMELKHDGSRHTGDGIPDRFSGSSSGADRYLSISNIQPEDEATYICGVGDTIKEQFMYVFGGGTKVTVLG | – | 1.8 | – | 0.61 | 2.61 | no binding (tested: 100 nM) | no binding (tested: 100 nM) | – |
| HA22-hIgG1 (antibody, V domains shown) VH: EVQLVESGGGLVKPGGSLKLSCAASGFAFSIYDMSWVRQTPEKCLEWVAYISSGGGTTYYPDTVKGRFTISRDNAKNTLYLQMSSLKSEDTAMYYCARHSGYGTHWGVLFAYWGQGTLVTVSA VL: DIQMTQTTSSLSASLGDRVTISCRASQDISNYLNWYQQKPDGTVKLLIYYTSILHSGVPSRFSGSGSGTDYSLTISNLEQEDFATYFCQQGNTLPWTFGCGTKLEIKR | ~0.02 | 2.57 | ~0.05 | 0.89 | 2.65 | – | – | ~0.06 |
| F1.120.15 (antibody, human IgG1, kappa, V domains shown, Human-murine chimeric IgG1, kappa) VH: QVQLQQSGPELVKPGASVKISCKASGNAFSNSWMNWVKQRPGKGLEWIGRVYSEDGDTQYNGKFRDKATLTADRSTSTAYMQLSSLTSEDSAVYFCARWLIYYGTYGAMDYWGQGTSVTVSS VL: DIQMTQTTSSLSASLGDRVTISCRASQDINNYLNWYHQKPDGTVKLLIYFTSRPYSGVPSRFSGSGSGTDYSLTISNLEQEDIATYFCQQGNTLPWTFGGGTKLEIKR | ~0.02 | 2.63 | ~0.2 | 1.21 | 2.89 | – | – | ~0.2 |
| F1.280.1 (antibody, human IgG1, kappa, V domains shown, Human-murine chimeric IgG1, kappa) VH: QIQLVQSGPELKKPGETVKISCKASGYTFTTYGMSWVKQTPGKGLTWMGWINTDSGVPTYADDFKRRFAFSLEASATTAYLQINNLKNEDTATYFCARGGPDYWGQGTTLTVSS VL: DILLTQSPATLSVTPGETVSLSCRASQSIYKNLHWYHQKSHRSPRLLIKYASDSISGIPSRFTGSGSGTNFTLSINSVKPEDEGIYYCLQGYIVPLTFGAGTKLELKR | ~0.02 | 2.38 | – | 0.81 | 2.46 | – | – | ~0.05 |
| F1.257.3 (antibody, human IgG1, kappa, V domains shown, Human-murine chimeric IgG1, kappa) VH: QVQLQQSGPELARPGASVKLSCKASGYTFTSYGISWVKQRTGQDLEWIGEIYPKLGTTYYNEKFKDKATLTTDRSSSTAYMALRSLTSEDSAVYFCACPHYYATRGGDYWGQGTTLTVSS VL: EIVLTQSPATLSVTPGDSVTFSCRASQSISNHLHWYQQKSHESPRLLIRYASQSISGIPSRFSGSGSGTDFTLSLSSVETEDFGVYFCQQSHSWPYTFGGGTKLEIAR | ~0.06 | 2.49 | – | 0.6 | 2.83 | – | – | ~0.3 |
| F1.224.1 (antibody, human IgG1, kappa, V domains shown, Human-murine chimeric IgG1, kappa) VH: EVLLHQSGPELVKPGASVKISCKASGYTFTDFNMDWVRQRHGQSLEWIGDVNPNNGGTIYNQKFKGKATLTVDKSSSTVYMDLRSLTSDDTAVYYCVRLGTSDYGEAWFISWGQGTVVTVSA VL: DIVLTQSPASLAVSLGQRATISCRASQSVSTPRYSFMHWYQQKPGQPPKLLIKYASNLESGFPARFTGSGSGTDFTLNIHPVEEEDTAAYYCQQSWAIPWTFGGGTKLEIKR | ~0.02 | 2.37 | ~0.04 | 1.08 | 3.12 | – | – | ~0.03 |
| F1.200.11 (antibody, human IgG1, kappa, V domains shown, Human-murine chimeric IgG1, kappa) VH: QNQLVQSGPELKKPGETVKISCKASGYTFTTAGMQWVQKMPGKGFKWIGWINTLSGEPKYAEDFKGRFAFSLETSATTAYLQISNLKNEDTATYFCARAYYSNLYWYFDVWGTGTTVTVSS VL: DIVMTQSQKFMSTTVGDRVTITCKASQNVVTAVAWYQQKPGQSPKVLIYSASNRYSGVPDRFTGSGSGTDFTLTISNMHSEDLANYFCHQYSSYPFTFGSGTKLEIKR | ~0.03 | 2.4 | ~1 | 0.85 | 2.34 | no binding (tested: 100 nM) | – | – |
| F1.216.2 (antibody, human IgG1, kappa, V domains shown, Human-murine chimeric IgG1, kappa) VH: QVQLQQSGPEVVRPGASVKISCKASGYAFSSSWMNWMKQRPGKALEWIGRIYPGDGDTNYSGEFKVKATLTADKSSSTAYMQLSSLTSEDSAVYFCAREGSYYSNPWYFDYWGQGTTLTVSS VL: DVLVTQTPLSLPVSLGDQASISCRSSQSIVQSNGDTYLEWYLQKPGQSPKLLIYKVSNRFSGVPDRFSGSGSGTDFTLKISRVEAEDLGVYYCFQGSHVPFTFGSGTKLEIKR | ~0.006 | 2.55 | ~0.01 | 1.71 | 2.69 | – | – | ~0.02 |
